B1: Outer dense fiber protein 1 (Homo sapiens), Q14990 (parent)
chain: MAALSCLLDSVRRDIKKVDRELRQLRCIDEFSTRCLCDLYMHPYCCCDLHPYPYCLCYSKRSRSCGLCDLYPCCLCDYKLYCLRPSLRSLERKAIRAIEDEKRELAKLRRTTNRILASSCCSSNILGSVNVCGFEPDQVKVRVKDGKVCVSAERENRYDCLGSKKYSYMNICKEFSLPPCVDEKDVTYSYGLGSCVKIESPCYPCTSPCSPCSPCSPCNPCSPCNPCSPYDPCNPCYPCGSRFSCRKMIL
B2: U3 small nucleolar RNA-associated protein 14 homolog C (Homo sapiens), Q5TAP6 (parent)
chain: MNVNQVAENLALSHQEELVDLPKNYPLSENEDEGDSDGERKHQKLLEAIISLDGKNRRKLAERSEASLKVSEFSVSSEGSGEKLGLADLLEPVKTSSSLATVKKQLNRVKSKKVVELPLNKEKIEQIHREVAFSKTSQVLSKWDPIILKNQQAEQLVFPLGKEQPAIAPIEHALSGWKARTPLEQEIFNLLHKNKQPVTDPLLTPMEKASLQAMSLEEAKMHRAELQRARALQSYYEAKARKEKKIKSKKYHKVVKKGKAKKALKEFEQLQKVNPTVALEEMEKIENARMMERMSLKHQNSGKWAKSKAIMAKYDLEARQAMQEQLAKNKELTQKLQVASESEEEEGGTEVEELLVPHVANEVQMNVDGPNPWMFRSCTSDTKEAATQEDPEQVPELAAHEVSASEAEERPVAEEEILLREFEERQSLRKRSELNQDAEPASSQETKDSSSQEVLSELRALSQKLKEKHQSRKQKASSEGTVPQVQREEPAPEEAEPLLLQRSERVQTLEELEELGKEDCFQNKELPRPVLEGQQSERTPNNRPDAPKEKKEKEQLINLQNFLTTQSPSVRSLAVPTIIEELEDEEERDQRQMIKEAFAGDDVIRDFLKEKREAVEASKPKDVDLTLPGWGEWGGVGLKPSAKKRRQFLIKAPEGPPRKDKNLPNVIISEKRNIHAAAHQVQVLPYPFTHHRQFERTIQTPIGSTWNTQRAFQKLTTPKVVTKPGHIIKPIKAEDVGYQSSSRSDLPVIQRNPKRITTRHNKEEKL
partner: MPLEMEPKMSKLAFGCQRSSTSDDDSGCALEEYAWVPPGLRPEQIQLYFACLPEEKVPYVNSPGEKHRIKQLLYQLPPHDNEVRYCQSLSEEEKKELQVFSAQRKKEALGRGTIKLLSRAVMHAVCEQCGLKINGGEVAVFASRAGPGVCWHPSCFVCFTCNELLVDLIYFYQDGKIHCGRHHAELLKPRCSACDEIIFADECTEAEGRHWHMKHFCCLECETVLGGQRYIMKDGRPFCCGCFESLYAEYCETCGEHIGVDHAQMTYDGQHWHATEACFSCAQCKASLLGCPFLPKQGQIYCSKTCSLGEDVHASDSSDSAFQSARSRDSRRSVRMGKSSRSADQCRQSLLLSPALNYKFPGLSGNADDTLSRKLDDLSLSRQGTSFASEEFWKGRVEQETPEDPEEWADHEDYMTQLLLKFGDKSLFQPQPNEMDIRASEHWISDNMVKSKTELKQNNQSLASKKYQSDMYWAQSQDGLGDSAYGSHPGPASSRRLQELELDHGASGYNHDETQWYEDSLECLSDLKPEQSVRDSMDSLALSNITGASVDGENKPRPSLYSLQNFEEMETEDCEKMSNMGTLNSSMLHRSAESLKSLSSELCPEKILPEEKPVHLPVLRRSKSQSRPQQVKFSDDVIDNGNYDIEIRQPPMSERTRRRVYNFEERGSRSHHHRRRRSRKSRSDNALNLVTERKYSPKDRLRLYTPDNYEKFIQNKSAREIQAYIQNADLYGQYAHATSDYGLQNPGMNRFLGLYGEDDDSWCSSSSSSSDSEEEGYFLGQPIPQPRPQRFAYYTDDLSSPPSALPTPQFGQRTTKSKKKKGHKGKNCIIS
B3: UDP-galactose translocator (Homo sapiens), P78381 (parent)
chain: MAAVGAGGSTAAPGPGAVSAGALEPGTASAAHRRLKYISLAVLVVQNASLILSIRYARTLPGDRFFATTAVVMAEVLKGLTCLLLLFAQKRGNVKHLVLFLHEAVLVQYVDTLKLAVPSLIYTLQNNLQYVAISNLPAATFQVTYQLKILTTALFSVLMLNRSLSRLQWASLLLLFTGVAIVQAQQAGGGGPRPLDQNPGAGLAAVVASCLSSGFAGVYFEKILKGSSGSVWLRNLQLGLFGTALGLVGLWWAEGTAVATRGFFFGYTPAVWGVVLNQAFGGLLVAVVVKYADNILKGFATSLSIVLSTVASIRLFGFHVDPLFALGAGLVIGAVYLYSLPRGAAKAIASASASASGPCVHQQPPGQPPPPQLSSHRGDLITEPFLPKLLTKVKGS
B4: Proteasome inhibitor PI31 subunit (Homo sapiens), Q92530 (parent)
chain: MAGLEVLFASAAPAITCRQDALVCFLHWEVVTHGYFGLGVGDQPGPNDKKSELLPAGWNNNKDLYVLRYEYKDGSRKLLVKAITVESSMILNVLEYGSQQVADLTLNLDDYIDAEHLGDFHRTYKNSEELRSRIVSGIITPIHEQWEKANVSSPHREFPPATAREVDPLRIPPHHPHTSRQPPWCDPLGPFVVGGEDLDPFGPRRGGMIVDPLRSGFPRALIDPSSGLPNRLPPGAVPPGARFDPFGPIGTSPPGPNPDHLPPPGYDDMYL
partner: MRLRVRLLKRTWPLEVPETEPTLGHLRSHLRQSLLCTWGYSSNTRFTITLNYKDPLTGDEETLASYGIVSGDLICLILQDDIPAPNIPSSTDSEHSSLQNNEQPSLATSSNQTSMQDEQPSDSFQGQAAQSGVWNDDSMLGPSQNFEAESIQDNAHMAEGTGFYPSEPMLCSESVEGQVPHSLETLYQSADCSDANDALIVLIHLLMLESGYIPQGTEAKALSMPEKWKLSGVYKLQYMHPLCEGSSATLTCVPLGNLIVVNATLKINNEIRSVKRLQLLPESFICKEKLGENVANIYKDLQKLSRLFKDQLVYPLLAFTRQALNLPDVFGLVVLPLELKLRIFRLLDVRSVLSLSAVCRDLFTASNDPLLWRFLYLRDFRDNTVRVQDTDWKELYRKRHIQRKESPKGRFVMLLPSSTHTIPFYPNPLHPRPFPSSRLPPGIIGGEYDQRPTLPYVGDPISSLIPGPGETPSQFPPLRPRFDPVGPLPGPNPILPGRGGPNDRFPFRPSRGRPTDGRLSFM
B5: Protein FAM168A (Homo sapiens), Q92567 (parent)
chain: MNPVYSPVQPGAPYGNPKNMAYTGYPTAYPAAAPAYNPSLYPTNSPSYAPEFQFLHSAYATLLMKQAWPQNSSSCGTEGTFHLPVDTGTENRTYQASSAAFRYTAGTPYKVPPTQSNTAPPPYSPSPNPYQTAMYPIRSAYPQQNLYAQGAYYTQPVYAAQPHVIHHTTVVQPNSIPSAIYPAPVAAPRTNGVAMGMVAGTTMAMSAGTLLTTPQHTAIGAHPVSMPTYRAQGTPAYSYVPPHW
partner: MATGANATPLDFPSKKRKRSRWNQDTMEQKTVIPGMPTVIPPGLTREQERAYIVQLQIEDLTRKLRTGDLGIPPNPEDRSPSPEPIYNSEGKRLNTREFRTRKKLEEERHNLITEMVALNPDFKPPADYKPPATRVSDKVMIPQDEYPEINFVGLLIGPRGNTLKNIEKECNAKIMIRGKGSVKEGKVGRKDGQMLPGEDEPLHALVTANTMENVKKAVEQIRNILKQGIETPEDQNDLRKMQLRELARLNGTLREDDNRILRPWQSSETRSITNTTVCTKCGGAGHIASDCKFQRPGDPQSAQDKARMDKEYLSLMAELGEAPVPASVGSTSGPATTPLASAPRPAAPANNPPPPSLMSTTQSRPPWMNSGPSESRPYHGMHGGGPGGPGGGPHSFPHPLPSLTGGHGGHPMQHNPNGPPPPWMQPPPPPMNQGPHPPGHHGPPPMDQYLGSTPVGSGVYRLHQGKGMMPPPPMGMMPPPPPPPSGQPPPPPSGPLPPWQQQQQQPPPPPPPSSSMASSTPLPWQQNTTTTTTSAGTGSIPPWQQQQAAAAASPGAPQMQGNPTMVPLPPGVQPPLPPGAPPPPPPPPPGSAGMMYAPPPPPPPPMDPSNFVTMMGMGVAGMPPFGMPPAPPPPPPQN

Variants of: B1
Details: with mtus2_human MTUS2, Q5JR59
Chain of mtus2_human MTUS2, Q5JR59 (Q5JR59 whole entry): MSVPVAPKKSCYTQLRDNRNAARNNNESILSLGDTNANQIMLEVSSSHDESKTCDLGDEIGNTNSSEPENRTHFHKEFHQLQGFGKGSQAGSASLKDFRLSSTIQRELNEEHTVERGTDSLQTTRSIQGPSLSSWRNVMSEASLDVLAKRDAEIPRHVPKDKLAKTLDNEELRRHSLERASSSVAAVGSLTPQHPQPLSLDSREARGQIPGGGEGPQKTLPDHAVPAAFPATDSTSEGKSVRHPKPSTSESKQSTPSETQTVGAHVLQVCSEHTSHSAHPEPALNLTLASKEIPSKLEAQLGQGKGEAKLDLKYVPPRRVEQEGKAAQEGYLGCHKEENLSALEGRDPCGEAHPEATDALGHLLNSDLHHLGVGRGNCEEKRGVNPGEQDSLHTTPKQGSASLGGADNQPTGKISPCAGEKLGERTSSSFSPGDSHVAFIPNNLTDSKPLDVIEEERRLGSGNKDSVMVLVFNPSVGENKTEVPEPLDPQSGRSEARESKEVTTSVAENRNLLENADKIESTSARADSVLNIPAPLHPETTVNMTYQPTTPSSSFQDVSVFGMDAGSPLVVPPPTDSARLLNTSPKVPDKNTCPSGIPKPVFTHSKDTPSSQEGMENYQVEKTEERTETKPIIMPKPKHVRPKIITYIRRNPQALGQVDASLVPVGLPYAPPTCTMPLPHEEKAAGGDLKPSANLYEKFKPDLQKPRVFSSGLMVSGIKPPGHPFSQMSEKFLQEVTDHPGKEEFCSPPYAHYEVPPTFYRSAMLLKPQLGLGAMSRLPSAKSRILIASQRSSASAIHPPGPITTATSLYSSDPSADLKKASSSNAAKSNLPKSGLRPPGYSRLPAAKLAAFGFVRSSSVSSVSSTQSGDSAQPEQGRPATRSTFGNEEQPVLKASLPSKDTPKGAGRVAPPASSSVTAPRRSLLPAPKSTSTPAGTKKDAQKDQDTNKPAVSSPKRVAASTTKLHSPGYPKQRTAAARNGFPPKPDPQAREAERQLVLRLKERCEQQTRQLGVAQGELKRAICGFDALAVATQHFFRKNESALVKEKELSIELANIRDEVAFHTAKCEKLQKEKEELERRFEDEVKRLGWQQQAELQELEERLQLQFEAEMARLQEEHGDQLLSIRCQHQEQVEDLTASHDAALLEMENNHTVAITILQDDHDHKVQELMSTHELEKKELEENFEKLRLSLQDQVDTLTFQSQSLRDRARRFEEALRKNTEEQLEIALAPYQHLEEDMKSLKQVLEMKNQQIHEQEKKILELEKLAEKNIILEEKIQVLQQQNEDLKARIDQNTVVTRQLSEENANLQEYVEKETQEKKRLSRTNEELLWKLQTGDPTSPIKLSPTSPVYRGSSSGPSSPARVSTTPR

| Variant | effect of a mutation on the interaction |
| --- | --- |
| S89I | with no effect |
| K17N | with no effect |

Variants of: B2
Details: with pric1_human PRICKLE1, Q96MT3

| effect of a mutation on the interaction | Variant |
| --- | --- |
| with no effect | R672H |
| with no effect | A652T |
| with no effect | K247E |

Second part, the variant before the results:

| Variant | effect of a mutation on the interaction |
| --- | --- |
| T101A | disrupting interaction strength |
| V109D | with no effect |
| I170V | with no effect |

Variants of: B3
Details: with pls1_human PLSCR1, O15162
Chain of pls1_human PLSCR1, O15162 (O15162 whole entry): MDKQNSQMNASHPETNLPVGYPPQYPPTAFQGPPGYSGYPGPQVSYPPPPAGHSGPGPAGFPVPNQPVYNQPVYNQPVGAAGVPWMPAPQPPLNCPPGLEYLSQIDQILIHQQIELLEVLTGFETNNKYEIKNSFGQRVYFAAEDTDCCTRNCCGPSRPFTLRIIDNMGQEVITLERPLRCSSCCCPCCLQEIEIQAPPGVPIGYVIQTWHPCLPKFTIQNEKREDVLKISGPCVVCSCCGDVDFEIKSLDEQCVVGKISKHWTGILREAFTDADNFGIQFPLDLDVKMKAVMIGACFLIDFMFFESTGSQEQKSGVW

| Variant | effect of a mutation on the interaction |
| --- | --- |
| A57T | with no effect |

Variants of: B4
Details: with fbx7_human FBXO7, Q9Y3I1

| Variant | effect of a mutation on the interaction |
| --- | --- |
| V192A | with no effect |

Variants of: B5
Details: with sf01_human SF1, Q15637

| Variant | effect of a mutation on the interaction |
| --- | --- |
| P122R | disrupting interaction strength |

Source: IntAct's records for PubMed 31515488
